Columns and labels:
Assay in all cases: ELONA
[1] = system: Norovirus GII.6 VLP, capsid protein VP1 (Norovirus GII.6); conditions: 1 uM aptamer, RT
[2] = system: Norovirus GII.3 VLP, capsid protein VP1 (Norovirus GII.3); conditions: 1 uM aptamer, RT
[3] = system: Norovirus GI.4 VLP, capsid protein VP1 (Norovirus GI.4); conditions: 1 uM aptamer, RT
[4] = system: Norovirus GII.12 VLP, capsid protein VP1 (Norovirus GII.12); conditions: 1 uM aptamer, RT
[5] = system: Norovirus GII.17 VLP, capsid protein VP1 (Norovirus GII.17); conditions: 1 uM aptamer, RT
[6] = system: Norovirus GI.8 VLP, capsid protein VP1 (Norovirus GI.8); conditions: 1 uM aptamer, RT
[7] = system: Norovirus GI.6 VLP, capsid protein VP1 (Norovirus GI.6); conditions: 1 uM aptamer, RT
[8] = system: Norovirus GII.7 VLP, capsid protein VP1 (Norovirus GII.7); conditions: 1 uM aptamer, RT
[9] = system: Norovirus GII.1 VLP, capsid protein VP1 (Norovirus GII.1); conditions: 1 uM aptamer, RT
[10] = system: Norovirus GI.7 VLP, capsid protein VP1 (Norovirus GI.7); conditions: 1 uM aptamer, RT
[11] = system: Norovirus GII.4 (Grimsby) VLP, capsid protein VP1 (Norovirus GII.4 Grimsby); conditions: 1 uM aptamer, RT
[12] = system: Norovirus GII.4 (Houston) VLP, capsid protein VP1 (Norovirus GII.4 Houston); conditions: 1 uM aptamer, RT
[13] = system: Norovirus GII.4 (Sydney) VLP, heat-denatured (80 C, 5 min) (Norovirus GII.4 Sydney); conditions: VLP denatured 80 C 5 min

Sequence: AGTATACGTATTACCTGCAGCCACCAGTGTGTTGAGGTTTGAGCACACTGATAGAGTGTCACGATATCTCGGAGATCTTGC [SMV-19]
- binding signal [1]: 1.8 T/N ratio
- binding signal [2]: 1.7 T/N ratio
- binding signal [3]: 1.7 T/N ratio
- binding signal [4]: 1.5 T/N ratio
- binding signal [5]: 3 T/N ratio
- binding signal [6]: 1.7 T/N ratio
- binding signal [7]: 3.7 T/N ratio
- binding signal [8]: 4 T/N ratio
- binding signal [9]: 7.1 T/N ratio
- binding signal [10]: 10.3 T/N ratio
- binding signal [11]: 9.6 T/N ratio
- binding signal [12]: 12.5 T/N ratio

Sequence: AGTATACGTATTACCTGCAGCCATCTGTGTGAAGACTATATGGCGCTCACATATTTCTTTCCGATATCTCGGAGATCTTGC [SMV-25]
- binding signal [1]: 7.3 T/N ratio
- binding signal [2]: 5.4 T/N ratio
- binding signal [3]: 5.6 T/N ratio
- binding signal [4]: 1.9 T/N ratio
- binding signal [5]: 2 T/N ratio
- binding signal [6]: 6.2 T/N ratio
- binding signal [7]: 2.4 T/N ratio
- binding signal [8]: 9.1 T/N ratio
- binding signal [9]: 9.4 T/N ratio
- binding signal [10]: 3.5 T/N ratio
- binding signal [11]: 10.4 T/N ratio
- binding signal [12]: 11 T/N ratio

Sequence: AGTATACGTATTACCTGCAGCCCATGTTTTGTAGGTGTAATAGGTCATGTTAGGGTTTCTGCGATATCTCGGAGATCTTGC [SMV-21]
- binding signal [1]: 3 T/N ratio
- binding signal [2]: 11.8 T/N ratio
- binding signal [3]: 4.3 T/N ratio
- binding signal [4]: 6.6 T/N ratio
- binding signal [5]: 12.2 T/N ratio
- binding signal [6]: 4.6 T/N ratio
- binding signal [7]: 3.8 T/N ratio
- binding signal [8]: 13.5 T/N ratio
- binding signal [9]: 8.6 T/N ratio
- binding signal [10]: 8.1 T/N ratio
- binding signal [11]: 6.4 T/N ratio
- binding signal [12]: 11.3 T/N ratio

Sequence: AGTATACGTATTACCTGCAGCTGACCGAGTGTCTGGTCATTTTCGATGTCTGTTGTTAGGCCGATATCTCGGAGATCTTGC [SMV-26]
- binding signal [1]: 2.8 T/N ratio
- binding signal [2]: 2.4 T/N ratio
- binding signal [3]: 1.1 T/N ratio
- binding signal [4]: 2.4 T/N ratio
- binding signal [5]: 1.3 T/N ratio
- binding signal [6]: 1.2 T/N ratio
- binding signal [7]: 1.5 T/N ratio
- binding signal [8]: 2.8 T/N ratio
- binding signal [9]: 2.1 T/N ratio
- binding signal [10]: 1.8 T/N ratio
- binding signal [11]: 3.2 T/N ratio
- binding signal [12]: 2.8 T/N ratio

Sequence: AGTATACGTATTACCTGCAGCTGGGAAGAGGTCCGGTAAATGCAGGGTCAGCCCGGAGAGCGATATCTCGGAGATCTTGC [M6-2]
- binding signal (VLP/no VLP ratio) [1]: 4.4
- binding signal (VLP/no VLP ratio) [2]: 3.16
- binding signal (VLP/no VLP ratio) [3]: 3.36
- binding signal (VLP/no VLP ratio) [4]: 5.55
- binding signal (VLP/no VLP ratio) [5]: 5.24
- binding signal (VLP/no VLP ratio) [6]: 4.55
- binding signal (VLP/no VLP ratio) [7]: 2.75
- binding signal (% of untreated VLP signal) [13]: 1.98
- binding signal (VLP/no VLP ratio) [8]: 8.02
- binding signal (VLP/no VLP ratio) [9]: 4.52
- binding signal (VLP/no VLP ratio) [10]: 7.56
- binding signal (VLP/no VLP ratio) [11]: 11.5
- binding signal (VLP/no VLP ratio) [12]: 13

Sequence: AGTATACGTATTACCTGCAGCTGTTTATGGGGATAAACGTATCTAATTCGTGTACTAATCACGATATCTCGGAGATCTTGC [M1]
- binding signal (VLP/no VLP ratio) [1]: 2.38
- binding signal (VLP/no VLP ratio) [2]: 2.94
- binding signal (VLP/no VLP ratio) [3]: 3.17
- binding signal (VLP/no VLP ratio) [4]: 4.47
- binding signal (VLP/no VLP ratio) [5]: 3.94
- binding signal (VLP/no VLP ratio) [6]: 2.61
- binding signal (VLP/no VLP ratio) [7]: 1.98
- binding signal (VLP/no VLP ratio) [8]: 7.47
- binding signal (VLP/no VLP ratio) [9]: 3.59
- binding signal (VLP/no VLP ratio) [10]: 7.32
- binding signal (VLP/no VLP ratio) [11]: 7.59
- binding signal (VLP/no VLP ratio) [12]: 10.4

Source: US20170114420
